Measurements as given in patent publication US20130203609A1 (BOARD OF TRUSTEES OF NORTHERN ILLINOIS UNIVERSITY, published 2013).
Where a chain is given by its changes, count along the chain named.

What was measured:
[1] = molecular target: T1, bovine pancreatic RNase A (bovine, UniProt P61823 27-150); test: ITC, 25 C; no nickel
T1 construct: mature; Bought purified protein; The residue numbers K61 and T70, and the missing residues 16-22, fit the mature numbering; It was coated on plates in the ELISAs and biotinylated for the phage selections
T1 sequence (looked up): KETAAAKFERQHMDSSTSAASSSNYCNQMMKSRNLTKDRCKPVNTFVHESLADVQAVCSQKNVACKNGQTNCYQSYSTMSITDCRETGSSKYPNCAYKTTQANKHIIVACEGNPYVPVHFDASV
Experimental: (§1) The binding parameters (K, ΔH°, ΔS°, and n) were determined using the single site binding model using the ITC add-in in Origin version 7 (MicroCal LLC). All titrations indicated a 1:1 interaction with observed stoichiometries equal to 1.0 (within 5%).
(§2) ITC experiments were performed using a MicroCal VP-ITC (MicroCal, LLC, Northampton, Mass.). All experiments were performed at 25° C. Proteins were dialyzed against the desired experimental buffer, which included PBS (20 mM NaPhosphate, 150 mM NaCl pH 7.4), TBS (20 mM Tris-HCl, 150 mM NaCl pH 7.4) and TBS-E (20 mM Tris, 150 mM NaCl, 1 mM EDTA, pH 7.4). For direct titration of NiCl₂ into the VHHmetal variant, concentrations were 2 mM and 200 μM for NiCl₂ and VHH, respectively. Based on the observed binding constant, this corresponds to a “cvalue” of 6.7, which is within the commonly acceptable range for the accurate determination of binding thermodynamics (Tellinghuisen, 2008; Wiseman et al. 1989). For competitive titrations, nickel was included in TBS without EDTA at concentrations ranging from 0-10 mM. Competitive VHH/RNase A titration experiments with a “c” value greater than 10 included protein concentrations ranging from 30 μM to 205 μM. Conditions included a 10-fold higher concentration of titrant (VHH). […] These experiments included using a 100-fold higher concentration of titrant (RNase A) relative to VHH. RNase A concentrations were between 150 μM and 800 μM. Extinction coefficients were determined using values determined by the methods described by Pace, et. al. (1995). […] For nickel/VHH titrations, the titrant nickel was dissolved in the appropriate dialysis buffer at a 10× concentration of the VHH. Experiments typically included 27, 10 μL injections with a 240 second delay between each injection. Dilution titrations indicated the absence of significant heats of dilution, consequently, no background dilution heat subtractions were necessary. The binding parameters (K, ΔH°, ΔS°, and n) were determined using the single site binding model using the ITC add-in in Origin version 7 (MicroCal LLC).

[2] = molecular target: T1, bovine pancreatic RNase A; test: ITC, 25 C; RNase A binding with 1 mM nickel (competitive)
Experimental: as §1, §2

[3] = molecular target: T1, bovine pancreatic RNase A; test: competitive phage ELISA without metals: VHH phage, serially diluted soluble RNase A (the varied competitor), RNase A-coated wells [panel A]
Experimental: (§3) Competitive Phage ELISA: Competitive phage ELISA's were performed as described by DeLano and Cunningham (DeLano and Cunningham 2004). Briefly, the concentration of phage needed to produce a 60% saturation signal was determined by running a phage ELISA of serially diluted phage stocks. This fixed amount of phage was then added to serially diluted RNase A and incubated for one hour at room temperature. The well contents of that plate were then transferred to a washed and blocked RNase A coated Maxisorp microtiter plate and incubated 15 minutes at room temperature. The plates were then treated as described above to determine the […] absorbance. The IC50 values were then determined using Origin Labs using the following relationship: […]

[4] = molecular target: T1, bovine pancreatic RNase A; test: competitive phage ELISA with 1 mM metals: VHH phage, serially diluted soluble RNase A (the varied competitor), RNase A-coated wells [panel A]
Experimental: as §3

[5] = molecular target: T1, bovine pancreatic RNase A; test: ITC, 25 C, no metal
Experimental: ITC experiments were performed using a MicroCal VP-ITC (MicroCal, LLC, Northampton, Mass.). All experiments were performed at 25° C. Proteins were dialyzed against the desired experimental buffer, which included PBS (20 mM NaPhosphate, 150 mM NaCl pH 7.4), TBS (20 mM Tris-HCl, 150 mM NaCl pH 7.4) and TBS-E (20 mM Tris, 150 mM NaCl, 1 mM EDTA, pH 7.4). For direct titration of NiCl₂ into the VHH-metal variant, concentrations were 2 mM and 200 μM for NiCl2 and VHH, respectively. Based on the observed binding constant, this corresponds to a “c-value” of 6.7, which is within the commonly acceptable range for the accurate determination of binding thermodynamics. For competitive titrations, nickel was included in TBS without EDTA at concentrations ranging from 0-10 mM. Competitive VHH/RNase A titration experiments with a “c” value greater than 10 included protein concentrations ranging from 30 μM to 205 μM. Conditions included a 10-fold higher concentration of titrant (VHH). […] These experiments included using a 100-fold higher concentration of titrant (RNase A) relative to VHH. RNase A concentrations were between 150 μM and 800 μM. […] The binding parameters (K, ΔH°, ΔS°, and n) were determined using the single site binding model using the ITC add-in in Origin version 7 (MicroCal LLC). […]

[6] = molecular target: T1, bovine pancreatic RNase A; test: ITC, 25 C, pH 7.4; no nickel
Experimental: as §1, §2

[7] = molecular target: T1, bovine pancreatic RNase A; test: ITC, 25 C, pH 7.4; no nickel; ITC at 25° C., no nickel
Experimental: as §1
(§4) ITC experiments were performed using a MicroCal VP-ITC (MicroCal, LLC, Northampton, Mass.). All experiments were performed at 25° C. Proteins were dialyzed against the desired experimental buffer, which included PBS (20 mM NaPhosphate, 150 mM NaCl pH 7.4), TBS (20 mM Tris-HCl, 150 mM NaCl pH 7.4) and TBS-E (20 mM Tris, 150 mM NaCl, 1 mM EDTA, pH 7.4). For direct titration of NiCl₂ into the VHHmetal variant, concentrations were 2 mM and 200 μM for NiCl₂ and VHH, respectively. Based on the observed binding constant, this corresponds to a “cvalue” of 6.7, which is within the commonly acceptable range for the accurate determination of binding thermodynamics (Tellinghuisen, 2008; Wiseman et al. 1989). For competitive titrations, nickel was included in TBS without EDTA at concentrations ranging from 0-10 mM. […] Extinction coefficients were determined using values determined by the methods described by Pace, et. al. (1995). […] The binding parameters (K, ΔH°, ΔS°, and n) were determined using the single site binding model using the ITC add-in in Origin version 7 (MicroCal LLC).

[8] = molecular target: T1, bovine pancreatic RNase A; test: ITC, 25 C; RNase A binding with 1 µM nickel (competitive)
Experimental: as §1, §2

[9] = molecular target: T1, bovine pancreatic RNase A; test: ITC, 25 C; RNase A binding with 10 mM nickel (competitive)
Experimental: as §1, §2

[10] = molecular target: T1, bovine pancreatic RNase A; test: ITC, 25 C; RNase A binding with 10 µM nickel (competitive)
Experimental: as §1, §2

[11] = molecular target: T1, bovine pancreatic RNase A; test: ITC, 25 C; RNase A binding with 100 µM nickel (competitive)
Experimental: as §1, §2

[12] = molecular target: T1, bovine pancreatic RNase A; test: ITC, 25 C, no metal; reference is the wild-type anti-RNase A VHH
Experimental: as §1, §4

[13] = molecular target: T1, bovine pancreatic RNase A; test: competitive phage ELISA, soluble RNase A against coated RNase A, with and without 1 mM Zn2+/Co2+/Ni2+

B1: wild-type anti-RNase A VHH (cAb-RN05) (VHH)
VHH: QVQLVESGGGLVQAGGSLRLSCAASGYAYTYIYMGWFRQAPGKEREGVAAMDSGGGGTLYADSVKGRFTISRDKGKNTVYLQMDSLKPEDTATYYCAAGGYELRDRTYGQWGQGTQVTVSS
notes: Camelid single-domain antibody; also called VHH-wt; wt-VHH
[1]
  -TΔS°: 1.9 kcal/mol
  Kd: 19 nM
  N: 1.01
  ΔG°: -10.5 kcal/mol
  ΔH°: -12.4 kcal/mol
[2]
  -TΔS°: 0.9 kcal/mol
  Kd: 16 nM
  N: 0.994
  ΔG°: -10.6 kcal/mol
  ΔH°: -10.7 kcal/mol
[3]
  IC50 (read off the curve): ~0.7 nM
[4]
  IC50 (read off the curve): ~1 nM

B2: VHH-metal (metal sensitive anti-RNase A VHH) (VHH)
VHH: B1 VHH with A28P, Y29H, T30P, I32L, Y33H, E102Q, Q110H
notes: also called Metal-VHH
[5]
  Kd: 155 nM
[6]
  -TΔS°: 9 kcal/mol
  N: 0.96
  ΔG°: -9.3 kcal/mol
  ΔH°: -17.8 kcal/mol
[7]
  Kd: 157 nM
[2]
  -TΔS°: 0.09 kcal/mol
  Kd: 5640 nM
  N: 1
  ΔG°: -7.13 kcal/mol
  ΔH°: -7.2 kcal/mol
[8]
  -TΔS°: 8 kcal/mol
  Kd: 160 nM
  N: 0.959
  ΔG°: -9.27 kcal/mol
  ΔH°: -17.2 kcal/mol
[9]
  -TΔS°: 1.3 kcal/mol
  Kd: 34000 nM
  N: 1
  ΔG°: -6.07 kcal/mol
  ΔH°: -7.3 kcal/mol
[10]
  -TΔS°: 3.6 kcal/mol
  Kd: 219 nM
  N: 0.98
  ΔG°: -9.1 kcal/mol
  ΔH°: -12.7 kcal/mol
[11]
  -TΔS°: -1 kcal/mol
  Kd: 900 nM
  N: 0.98
  ΔG°: -8.27 kcal/mol
  ΔH°: -7 kcal/mol
[12]
  fold decrease in binding affinity against the wild-type VHH: ~8 fold
  ΔΔG° against the wild-type VHH: 1.2 kcal/mol
[13]
  fold change in IC50 with and without 1 mM metals: 1000 fold
[3]
  IC50 (read off the curve): ~0.6 nM
